Experimental findings from patent publication US20230111363A1 (LMMUNOMETABOLISM DEVELOPMENT, published 2023) are described below.

Numbering of substitutions follows the chain as printed. Numbers in names are those of the source.

In experiment [1] the target is T1, human monocarboxylate transporter 1 (MCT1) (human, UniProt P53985 1-500).
T1 sequence: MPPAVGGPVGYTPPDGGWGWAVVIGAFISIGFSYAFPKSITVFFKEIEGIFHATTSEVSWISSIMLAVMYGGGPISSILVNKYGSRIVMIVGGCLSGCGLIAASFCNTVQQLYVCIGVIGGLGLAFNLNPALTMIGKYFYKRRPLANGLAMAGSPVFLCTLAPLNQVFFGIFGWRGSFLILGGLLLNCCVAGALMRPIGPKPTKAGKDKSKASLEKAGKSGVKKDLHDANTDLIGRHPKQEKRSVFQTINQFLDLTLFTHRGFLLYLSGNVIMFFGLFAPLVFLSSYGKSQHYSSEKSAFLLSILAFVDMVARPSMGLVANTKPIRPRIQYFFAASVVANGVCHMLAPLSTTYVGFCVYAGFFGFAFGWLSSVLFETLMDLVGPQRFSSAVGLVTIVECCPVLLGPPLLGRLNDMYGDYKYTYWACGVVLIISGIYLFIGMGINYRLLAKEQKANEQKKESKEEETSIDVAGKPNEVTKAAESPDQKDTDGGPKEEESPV
Description: cell-based or functional assay.

Experiment [2] has as its target T1, human monocarboxylate transporter 1 …. Description: cell-based or functional assay. The source holds these as a separate data set.
For experiment [3] the target is unchanged. Description: competition MSD binding assay, antibody titrated with HEK WT cells expressing MCT1, apparent KD, screening at 25 C. The protocol: The mix was incubated at 37° C. for 1-2 days. After incubation, the incubated samples were spun down for 5 min at 500×g to remove cells. A 96-well multi-array plate (Meso Scale Diagnostics, Cat. #L15XA-3) was coated at 4° C. overnight with 1 μg/mL of goat anti human FC in phosphate buffered saline (PBS). Following coating, plates were washed 3 times with 150 μL PBST (PBS with 0.05% Tween 20) and blocked with 150 μL/well of PBS 3% blocker A buffer (Cat #R93BA-1) at 25° C. for 1 hr. Plates were then washed 3 times with PBST. 50 μL of the preincubated antibody: cell dilution series was transferred to the wells and incubated at 25° C. with 700 rpm shaking for 1 hr. Plates were washed 3 times with PBST. Then 100 μL of 1 μg/mL anti-human kappa-biotin antibody (Cat. #2060-08) was added, and plates were incubated at 25° C. with 700 rpm shaking […]. Plates were washed 3 times with PBST, followed by addition of 100 μL of 1 μg/mL MSD Sulfo-tag streptavidin antibody (Meso Scale Diagnostics Cat. #R32 AD1), and plates were incubated at 25° C. with 700 rpm shaking for 1 hr. Plates were washed 3 times with PBST, 150 μL/well of 1× Read Buffer T was added to the wells and analyzed on a SECTOR® Imager 6000 (Meso Scale Diagnostics) 15 min after buffer addition. The apparent KD is determined by fitting a sigmoidal curve to the electrochemiluminescence (ECL) response vs. log (MCT1 receptor concentration) using assay development tool kit graphed with normalized ECL values.

The target is the same in experiment [4]. In words: competition MSD binding assay, antibody titrated with HEK WT cells expressing MCT1, apparent KD, 37 C, average of triplicate. The text has this:
Plates were then washed 3 times with PBST. […] Plates were washed 3 times with PBST.

Experiment [5] has the same target. Description: cell-based MCT1 binding.
The target is the same in experiment [6]. In words: cell-based or functional assay. The source holds these as a separate data set.
In another experiment the target is T2, Human C1q (human, UniProt P02745 23-245; P02746 28-253; P02747 29-245).
T2 construct: Bought (MS Biomedical); also called complement component C1q
In words: ELISA, antibody coated on plate, human C1q detected with anti-human C1q-HRP (results not shown).

In experiment [7] the target is T3, human FcγRI (CD64) extracellular domain (human, UniProt P12314 16-292).
T3 construct: extracellular domain; also called FcγRI ECD
In words: SPR (Biacore T100), antibody captured on Protein A, FcγR ECD as analyte, 25 C. The protocol:
Unreacted sites were blocked with a 7 minute injection of ethanolamine at 10 μL/minute. […] FC1 was the reference FC, therefore no antibody was captured in FC1. […] Regeneration was performed by injecting 15 μL of 10 mM glycine, pH 1.5, at 30 μL/minute over all FCs. […] The affinity (KD) was calculated using either steady state equilibrium analysis with the Scrubber 2 Biacore Evaluation Software or a “1:1 (Langmuir) binding” model in BIA Evaluation. […] Duplicate injections of each concentration were injected over all FCs at 40 μL/minute for 60 seconds followed by a 120 second dissociation phase. […] The affinity (KD) was calculated using the steady state equilibrium analysis with the Scrubber 2 Biacore Evaluation Software.

T2 sequence (P02745 23-245 limits assumed, chain 1 of 3): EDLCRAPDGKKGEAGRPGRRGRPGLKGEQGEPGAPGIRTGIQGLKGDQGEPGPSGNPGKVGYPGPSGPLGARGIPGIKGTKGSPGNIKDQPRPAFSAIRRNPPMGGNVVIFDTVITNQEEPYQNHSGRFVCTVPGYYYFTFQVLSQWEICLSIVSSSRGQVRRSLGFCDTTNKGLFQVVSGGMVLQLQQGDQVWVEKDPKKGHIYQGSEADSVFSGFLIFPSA
T2 sequence (P02746 28-253 limits assumed, chain 2 of 3): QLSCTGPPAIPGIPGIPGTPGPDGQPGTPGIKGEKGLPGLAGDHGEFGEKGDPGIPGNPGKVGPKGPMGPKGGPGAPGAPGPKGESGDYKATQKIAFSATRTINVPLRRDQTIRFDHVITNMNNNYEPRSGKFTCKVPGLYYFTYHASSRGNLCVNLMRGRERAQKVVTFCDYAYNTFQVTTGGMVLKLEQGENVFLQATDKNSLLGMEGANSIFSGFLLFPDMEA
T2 sequence (P02747 29-245 limits assumed, chain 3 of 3): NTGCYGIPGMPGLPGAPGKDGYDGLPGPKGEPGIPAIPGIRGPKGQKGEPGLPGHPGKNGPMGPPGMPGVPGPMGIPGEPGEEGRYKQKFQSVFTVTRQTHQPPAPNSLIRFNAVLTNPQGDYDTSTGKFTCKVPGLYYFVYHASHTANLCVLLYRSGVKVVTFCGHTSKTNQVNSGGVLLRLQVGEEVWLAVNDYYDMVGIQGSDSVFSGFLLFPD
T3 sequence (P12314 16-292): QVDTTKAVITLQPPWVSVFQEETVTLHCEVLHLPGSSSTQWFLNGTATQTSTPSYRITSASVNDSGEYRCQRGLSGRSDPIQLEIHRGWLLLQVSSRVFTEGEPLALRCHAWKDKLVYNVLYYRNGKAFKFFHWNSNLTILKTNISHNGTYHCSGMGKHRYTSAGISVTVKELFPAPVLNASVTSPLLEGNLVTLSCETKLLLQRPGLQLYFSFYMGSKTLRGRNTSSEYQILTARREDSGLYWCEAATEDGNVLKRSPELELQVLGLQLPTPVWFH
Description for Human C1q: A 96-well microplate was coated with 100 μL/well of each antibody diluted in DPBS (Dulbecco's HyClone) with a concentration range of 10 μg/mL to 0.19 μg/mL. Testing was performed in duplicate wells. The plate was sealed and incubated overnight at 4° C. The coating reagent was removed, and 200 μL/well of casein blocking reagent (Thermo) was added. The plate was sealed and incubated for 2 hours at room temperature (RT). Plate was washed 3 times with wash buffer (1×TBE with 0.05% Tween 20) and 100 μL/well of Human C1q (MS Biomedical) at 10 μg/mL diluted in casein blocking reagent was added and incubated for 3 hours at RT. The plate was then washed three times with wash buffer and 100 μL/well of a 1:800 times dilution of Sheep anti-human C1q-HRP (Abcam #ab46191) in casein blocker was added and incubated for 1 hour at RT. The plate was washed 6 times with wash buffer, and 100 μL/well of TMB Substrate (Pierce) was added to each well and incubated for 7 minutes. 100 μL of 1 N HCl was added to each well to stop the reaction. Optical density was immediately measured using a colorimetric microplate reader set to 450 nm. The data was analyzed using SoftMax Pro 7.1 Data Acquisition and Analysis Software.

B1: anti-human MCT1 antibody Ab1 (antibody, human IgG1, kappa, V domains shown)
VH: QVQLVQSGAEVKKPGASVKVSCTVSGFSLTNYHLQWVRQAPGQGLEWMGFIRSSGNTEYNSEFKSRVTMTRDTSTSTVYMELSSLRSEDTAVYYCARNSWYHGTYYSPGYYVMDAWGQGTLVTVSS
VL: EIVLTQSPGTLSLSPGERATLSCKGSQNINNYLAWYQQKPGQAPRLLIYNRHNLQTGIPDRFSGSGSGTDFTLTISRLEPEDFAVYYCYQYSDGYTFGGGTKVEIKR
notes: human IgG1 effector null (IgG1EN) backbone; also called humanized Framework antibody Ab1
Consider B1, for which, in experiment [1], the “IC50 of inhibition of MCT1 mediated transport (bromopyruvate assay, HEK293T cells)” value is 164 nM. Also, in experiment [2], the “IC50 of inhibition of CD4 T cell proliferation” value is 59 nM and the “IC50 of inhibition of CD8 T cell proliferation” value came out at 42 nM. For the same molecule, the Kd in experiment [3] amounted to 5.81 nM. Moreover, the Kd in experiment [4] is 1.23 nM.

B2: anti-human MCT1 antibody Ab2 (antibody, human IgG1, kappa, V domains shown)
VH: B1 VH
VL: DIQMTQSPSTLSASVGDRVTITCKGSQNINNYLAWYQQKPGKAPKLLIYNRHNLQTGVPSRFSGSGSGTEFTLTISSLQPDDFATYYCYQYSDGYTFGGGTKVEIKR
notes: IgG1EN backbone
On to B2, for which the binding result in experiment [5] is given as “binds”.

B3: anti-human MCT1 antibody Ab21 (antibody, human IgG1, kappa, V domains shown)
VH: B1 VH with F27R, S99R, A115P
VL: B1 VL
notes: IgG1EN backbone
Turning to B3, the “IC50 of inhibition of MCT1 mediated transport (bromopyruvate assay, HEK293T cells)” value in experiment [1] was 50 nM. In addition, in experiment [2], the “IC50 of inhibition of CD4 T cell proliferation” value worked out at 6 nM and the “IC50 of inhibition of CD8 T cell proliferation” value worked out at 4 nM. In addition, the Kd in experiment [3] is 0.85 nM.

B4: anti-human MCT1 antibody Ab6 (antibody, human IgG1, kappa)
heavy: QVQLVQSGAEVKKPGASVKVSCTVSGRSLTNYHLQWVRQAPGQGLEWMGFIRSSGNTEYNSRFKSRVTMTRDTSTSTVYMELSSLRSEDTAVYYCARNRWYHGTYYSPGYYVMDAWGQGTLVTVSSASTKGPSVFPLAPSSKSTSGGTAALGCLVKDYFPEPVTVSWNSGALTSGVHTFPAVLQSSGLYSLSSVVTVPSSSLGTQTYICNVNHKPSNTKVDKRVEPKSCDKTHTCPPCPAPEAEGAPSVFLFPPKPKDTLMISRTPEVTCVVVDVSHEDPEVKFNWYVDGVEVHNAKTKPREEQYNSTYRVVSVLTVLHQDWLNGKEYKCKVSNKALPSSIEKTISKAKGQPREPQVYTLPPSREEMTKNQVSLTCLVKGFYPSDIAVEWESNGQPENNYKTTPPVLDSDGSFFLYSKLTVDKSRWQQGNVFSCSVMHEALHNHYTQKSLSLSPGK
light: EIVLTQSPGTLSLSPGERATLSCKGSQNIENYLAWYQQKPGQAPRLLIYNRHNLQTGIPDRFSGSGSGTDFTLTISRLEPEDFAVYYCYQYSDGYTFGGGTKVEIKRTVAAPSVFIFPPSDEQLKSGTASVVCLLNNFYPREAKVQWKVDNALQSGNSQESVTEQDSKDSTYSLSSTLTLSKADYEKHKVYACEVTHQGLSSPVTKSFNRGEC
notes: IgG1EN backbone
As to B4, the “IC50 of inhibition of MCT1 mediated transport (bromopyruvate assay, HEK293T cells)” value in experiment [1] came to 25 nM. In experiment [2], the “IC50 of inhibition of CD4 T cell proliferation” value was determined as 3 nM and the “IC50 of inhibition of CD8 T cell proliferation” value worked out at 3 nM. Moreover, in experiment [6], the “IC50 of inhibition of B cell proliferation, Average of 3 donors” value came to 2.95 nM; the “IC50 of inhibition of B cell proliferation, Donor1” value was 3.06 nM; the “IC50 of inhibition of B cell proliferation, Donor3” value is 3.38 nM. Besides, the binding result in the experiment with Human C1q is reported as “no binding”. Besides, in experiment [3], the Kd was 1.27 nM. The Kd in experiment [4] amounted to 0.59 nM.

B5: anti-human MCT1 antibody Ab20 (antibody, human IgG1, kappa, V domains shown)
VH: B1 VH with F27R, S99L
VL: B1 VL
notes: IgG1EN backbone
Regarding B5, the “IC50 of inhibition of MCT1 mediated transport (bromopyruvate assay, HEK293T cells)” value in experiment [1] worked out at 83 nM. Also, in experiment [2], the “IC50 of inhibition of CD4 T cell proliferation” value came to 13 nM and the “IC50 of inhibition of CD8 T cell proliferation” value stood at 6 nM. Further, in experiment [3], the Kd was determined as 0.64 nM.

B6: anti-human MCT1 antibody Ab19 (antibody, human IgG1, kappa, V domains shown)
VH: B1 VH with F27R, S53R, S99R
VL: B1 VL with N30E
notes: IgG1EN backbone
On to B6, for which the “IC50 of inhibition of MCT1 mediated transport (bromopyruvate assay, HEK293T cells)” value in experiment [1] is 35 nM. For the same molecule, in experiment [2], the “IC50 of inhibition of CD4 T cell proliferation” value is 5 nM and the “IC50 of inhibition of CD8 T cell proliferation” value came to 3 nM. Moreover, the Kd in experiment [3] was 0.46 nM.

B7: anti-human MCT1 antibody Ab3 (antibody, human IgG1, kappa, V domains shown)
VH: EVQLVESGGGLVQPGGSLRLSCTVSGFSLTNYHLQWVRQAPGKGLEWVGFIRSSGNTEYNSEFKSRFTISRDDSKNSLYLQMNSLKTEDTAVYYCARNSWYHGTYYSPGYYVMDAWGQGTLVTVSS
VL: B2 VL
notes: IgG1EN backbone
For B7, the binding result in experiment [5] is “binds”.

B8: anti-human MCT1 antibody Ab5 (antibody, human IgG1, kappa, V domains shown)
VH: EVQLVQSGAEVKKPGESLKISCTVSGFSLTNYHLQWVRQMPGKGLEWMGFIRSSGNTEYNSEFKSQVTISADKSISTAYLQWSSLKASDTAMYYCARNSWYHGTYYSPGYYVMDAWGQGTLVTVSS
VL: B2 VL with T10S, E70D, D81E
notes: IgG1EN backbone
Consider B8, for which the binding result in experiment [5] is given as “binds”.

B9: anti-human MCT1 antibody Ab4 (antibody, human IgG1, kappa, V domains shown)
VH: B7 VH with Q13K, S77T
VL: B2 VL with T10S, E70D, D81E
notes: IgG1EN backbone
With B9, in experiment [5], the binding result is given as “binds”.

B10: INX444 IgG1EN (antibody)
heavy: QVQLKESGPGLVKPSQTLSLTCTVSGFSLTNYHLQWVRQPPGKGLEWIGFIRSSGNTEYNPSLKSRVTISRDTSKNQVSLKLSSVTAADTAVYYCARKRWVHGTWYSPGYYVMDAWGQGTLVTVSSASTKGPSVFPLAPSSKSTSGGTAALGCLVKDYFPEPVTVSWNSGALTSGVHTFPAVLQSSGLYSLSSVVTVPSSSLGTQTYICNVNHKPSNTKVDKRVEPKSCDKTHTCPPCPAPEAEGAPSVFLFPPKPKDTLMISRTPEVTCVVVDVSHEDPEVKFNWYVDGVEVHNAKTKPREEQYNSTYRVVSVLTVLHQDWLNGKEYKCKVSNKALPSSIEKTISKAKGQPREPQVYTLPPSREEMTKNQVSLTCLVKGFYPSDIAVEWESNGQPENNYKTTPPVLDSDGSFFLYSKLTVDKSRWQQGNVFSCSVMHEALHNHYTQKSLSLSPGK
light: DIQLTQSPSAMSASVGDRVTITCRASQGISNYLAWYQQKPGKAPKLLIYAASTLQSGVASRFSGRGSGTDFTLTISSLQPEDFATYYCQQSDILPYTFGQGTKVEIKRTVAAPSVFIFPPSDEQLKSGTASVVCLLNNFYPREAKVQWKVDNALQSGNSQESVTEQDSKDSTYSLSSTLTLSKADYEKHKVYACEVTHQGLSSPVTKSFNRGEC
notes: INX444 of WO19136300 converted to the IgG1EN backbone (L234A, L235E, G237A, A330S, P331S, EU numbering)
For the molecule B10, the binding result in experiment [7] was “no binding (tested: 200 nM)”.
